Assay results reported in patent US20240279318A1 (NANJING LEGEND BIOTECH, published 2024).
Residue numbers refer to the chain shown, from its start. Read-outs that look alike come from different tables or passages of the source. One block for each binder: values may come before it.

Legend:
[1] = target: T1, AFP158/HLA-A*02:01 complex (human); assay: SPR (BIAcore T200), crude scFv captured, complex flowed over
T1 construct: flowed over the chip as analyte; also called AFP158 peptide/HLA-A*02:01 complex
Experimental: The experiment was carried out as follows. The crude scFv protein were captured onto the sensorchip. Different concentrations (320, 160, 40 nM) of AFP158/HLA-A*02:01 complex flowed over the sensorchip surface, and were allowed to bind the antibody fragment for 100 s followed by injection of the running buffer to allow dissociation of the complex. On-rate (kd) and off-rate (kd) were calculated based on association and dissociation curve, and were used to estimate the equilibrium dissociation constant (KD).
The 84 muteins were then tested for their selectivity. The 12 recombinant AFP158 homologous peptides/HLA-A*02:01 complex were mixed in three groups (group 1: ZNF566 and ARNTL, group 2: CDC14A, PTP4A1, BRCA2 and RCL1, group 3: OR1I1, OR51B6, OR6C1, ATG9A, RP1 and NR2E1). The binding of the 84 antibodies to these complexes were then measured by method described above.

[2] = target: ATG9A peptide/HLA-A*02:01 complex (recombinant) (human); assay: SPR
[3] = target: BRCA2 peptide/HLA-A*02:01 complex (recombinant) (human); assay: SPR
[4] = target: CDC14A peptide/HLA-A*02:01 complex (recombinant) (human); assay: SPR
[5] = target: NR2E1 peptide/HLA-A*02:01 complex (recombinant) (human); assay: SPR
[6] = target: OR1I1 peptide/HLA-A*02:01 complex (recombinant) (human); assay: SPR
[7] = target: PTP4A1 peptide/HLA-A*02:01 complex (recombinant) (human); assay: SPR
[8] = target: RP1 peptide/HLA-A*02:01 complex (recombinant) (human, UniProt P16213 21-119 (Pongo pygmaeus entry)); assay: SPR
[9] = target: RCL1 peptide/HLA-A*02:01 complex (recombinant) (human, UniProt P16213 21-119 (Pongo pygmaeus entry)); assay: SPR
[10] = target: ZNF566 peptide/HLA-A*02:01 complex (recombinant) (human); assay: SPR
[11] = target: T2, AFP158/HLA-A*02:01 complex (human); assay: SPR; vs AS170036 VL1VH1
T2 construct: biotinylated on the BSP by BirA for ELISA and panning; also called biotinylated AFP158/HLA-A*02:01 complex; Bio-AFP158

[12] = target: T2, AFP158/HLA-A*02:01 complex; assay: SPR; vs AS170036 VL1VH1; remark: listed apart in the source
[13] = target: T2, AFP158/HLA-A*02:01 complex; assay: SPR, crude scFv captured;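 also: Peptide–MHC complex flowed at several concentrations over sensorchip-captured scFv, Kd derived from on- and off-rates obtained from the association and dissociation curves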
[14] = target: OR51B6 peptide/HLA-A*02:01 complex (recombinant) (human); assay: SPR

SPR binding level [1]: 559 RU
B1: 34-AS170036 VL1VH1-98I108A (scFv)
scFv: QSALTQPRSVSGSPGQSVTISCAGTSSDVGSENYVSWYQQHPGKAPKLMIYQVNKRASGVPDRFSGSKSGNTASLTISGLQAEDEADYYCASYRSSDINIVFGGGTKLTVLGGGGSGGGGSGGGGSEVQLVESGGGLVQPGGSLRLSCAASGFTFSSYAMSWVRQAPGKGLEWVSTINSGTGSPYYADSVKGRFTISRDNSKNTLYLQMNSLRAEDTAVYYCAKNFFDGSWFLAPPAMDYWGQGTLVTVSSHHHHHH
notes: Crude scFv mutein of AS170036 VL1VH1

SPR binding level [1]: 664 RU
B2: 43-AS170036 VL1VH1-56Y98I108A (scFv)
scFv: B1 scFv with G182Y
notes: as for B1

SPR binding level [1]: 604 RU
B3: 49-AS170036 VL1VH1-56N98F108A (scFv)
scFv: B1 scFv with I98F, G182N
notes: as for B1

binding result [2]: no binding (tested: all below 3.5 RU)
binding result [3]: no binding (tested: all below 3.5 RU)
binding result [4]: no binding (tested: all below 3.5 RU)
binding result [5]: no binding (tested: all below 3.5 RU)
binding result [6]: no binding (tested: all below 3.5 RU)
binding result [7]: no binding (tested: all below 3.5 RU)
binding result [8]: no binding (tested: all below 3.5 RU)
binding result [9]: no binding (tested: all below 3.5 RU)
binding result [10]: no binding (tested: all below 3.5 RU)
Affinity increase [11]: > 2 fold
Affinity increase [12]: 5.5 fold
Kd [13]: 42 nM
B4: AS170036 VL1VH1-VHG108D (scFv)
scFv: B1 scFv with I98H, A234D

SPR binding level [1]: 686 RU
B5: 67-AS170036 VL1VH1-57K98F108A (scFv)
scFv: B1 scFv with I98F, S183K
notes: as for B1

binding result [2]: no binding (tested: all below 3.5 RU)
binding result [3]: no binding (tested: all below 3.5 RU)
binding result [4]: no binding (tested: all below 3.5 RU)
binding result [5]: no binding (tested: all below 3.5 RU)
binding result [6]: no binding (tested: all below 3.5 RU)
binding result [14]: no binding (tested: all below 3.5 RU)
binding result [7]: no binding (tested: all below 3.5 RU)
binding result [8]: no binding (tested: all below 3.5 RU)
binding result [9]: no binding (tested: all below 3.5 RU)
binding result [10]: no binding (tested: all below 3.5 RU)
Affinity increase [11]: > 2 fold
Affinity increase [12]: 6.6 fold
Kd [13]: 35 nM
B6: AS170036 VL1VH1-VHG56Y (scFv)
scFv: B1 scFv with I98H, G182Y, A234G

SPR binding level [1]: 587 RU
B7: 40-AS170036 VL1VH1-56Y98F108A (scFv)
scFv: B1 scFv with I98F, G182Y
notes: as for B1

binding result [2]: no binding (tested: all below 3.5 RU)
binding result [3]: no binding (tested: all below 3.5 RU)
binding result [4]: no binding (tested: all below 3.5 RU)
binding result [5]: no binding (tested: all below 3.5 RU)
binding result [6]: no binding (tested: all below 3.5 RU)
binding result [14]: no binding (tested: all below 3.5 RU)
binding result [7]: no binding (tested: all below 3.5 RU)
binding result [8]: no binding (tested: all below 3.5 RU)
binding result [9]: no binding (tested: all below 3.5 RU)
binding result [10]: no binding (tested: all below 3.5 RU)
Affinity increase [11]: > 2 fold
Affinity increase [12]: 2.8 fold
Kd [13]: 96 nM
B8: AS170036 VL1VH1-VHG108S (scFv)
scFv: B1 scFv with I98H, A234S

binding result [2]: no binding (tested: all below 3.5 RU)
binding result [3]: no binding (tested: all below 3.5 RU)
binding result [4]: no binding (tested: all below 3.5 RU)
binding result [5]: no binding (tested: all below 3.5 RU)
binding result [6]: no binding (tested: all below 3.5 RU)
binding result [14]: no binding (tested: all below 3.5 RU)
binding result [7]: no binding (tested: all below 3.5 RU)
binding result [8]: no binding (tested: all below 3.5 RU)
binding result [9]: no binding (tested: all below 3.5 RU)
binding result [10]: no binding (tested: all below 3.5 RU)
Affinity increase [11]: > 2 fold
Affinity increase [12]: 2.5 fold
Kd [13]: 92 nM
B9: AS170036 VL1VH1-VHG56N (scFv)
scFv: B1 scFv with I98H, G182N, A234G

SPR binding level [1]: 817 RU
B10: 48-AS170036 VL1VH1-56Y98Q108S (scFv)
scFv: B1 scFv with I98Q, G182Y, A234S
notes: as for B1

SPR binding level [1]: 807 RU
B11: 70-AS170036 VL1VH1-57K98I108A (scFv)
scFv: B1 scFv with S183K
notes: as for B1

SPR binding level [1]: 819 RU
B12: 75-AS170036 VL1VH1-57K98Q108S (scFv)
scFv: B1 scFv with I98Q, S183K, A234S
notes: as for B1

SPR binding level [1]: 662 RU
B13: 82-AS170036 VL1VH1-57M98Q108A (scFv)
scFv: B1 scFv with I98Q, S183M
notes: as for B1

SPR binding level [1]: 689 RU
B14: 45-AS170036 VL1VH1-56Y98I108S (scFv)
scFv: B1 scFv with G182Y, A234S
notes: as for B1

binding result [3]: no binding (tested: all below 3.5 RU)
binding result [4]: no binding (tested: all below 3.5 RU)
binding result [5]: no binding (tested: all below 3.5 RU)
binding result [6]: no binding (tested: all below 3.5 RU)
binding result [14]: no binding (tested: all below 3.5 RU)
binding result [8]: no binding (tested: all below 3.5 RU)
binding result [9]: no binding (tested: all below 3.5 RU)
binding result [10]: no binding (tested: all below 3.5 RU)
Affinity increase [11]: > 2 fold
B15: AS170036 VL1VH1-VLH98Q (scFv)
scFv: B1 scFv with I98Q, A234G

binding result [3]: no binding (tested: all below 3.5 RU)
binding result [4]: no binding (tested: all below 3.5 RU)
binding result [5]: no binding (tested: all below 3.5 RU)
binding result [6]: no binding (tested: all below 3.5 RU)
binding result [14]: no binding (tested: all below 3.5 RU)
binding result [7]: no binding (tested: all below 3.5 RU)
binding result [8]: no binding (tested: all below 3.5 RU)
binding result [9]: no binding (tested: all below 3.5 RU)
binding result [10]: no binding (tested: all below 3.5 RU)
Affinity increase [11]: > 2 fold
B16: AS170036 VL1VH1-VLH98F (scFv)
scFv: B1 scFv with I98F, A234G

binding result [2]: no binding (tested: all below 3.5 RU)
binding result [3]: no binding (tested: all below 3.5 RU)
binding result [4]: no binding (tested: all below 3.5 RU)
binding result [5]: no binding (tested: all below 3.5 RU)
binding result [6]: no binding (tested: all below 3.5 RU)
binding result [7]: no binding (tested: all below 3.5 RU)
binding result [8]: no binding (tested: all below 3.5 RU)
binding result [9]: no binding (tested: all below 3.5 RU)
binding result [10]: no binding (tested: all below 3.5 RU)
Affinity increase [11]: > 2 fold
Affinity increase [12]: 5.5 fold
Kd [13]: 42 nM
B17: AS170036 VL1VH1-VHG108A (scFv)
scFv: B1 scFv with I98H

SPR binding level [1]: 682 RU
B18: 42-AS170036 VL1VH1-56Y98F108S (scFv)
scFv: B1 scFv with I98F, G182Y, A234S
notes: as for B1

binding result [3]: no binding (tested: all below 3.5 RU)
binding result [4]: no binding (tested: all below 3.5 RU)
binding result [5]: no binding (tested: all below 3.5 RU)
binding result [6]: no binding (tested: all below 3.5 RU)
binding result [14]: no binding (tested: all below 3.5 RU)
binding result [7]: no binding (tested: all below 3.5 RU)
binding result [8]: no binding (tested: all below 3.5 RU)
binding result [9]: no binding (tested: all below 3.5 RU)
binding result [10]: no binding (tested: all below 3.5 RU)
Affinity increase [11]: > 2 fold
B19: AS170036 VL1VH1-VLH98I (scFv)
scFv: B1 scFv with A234G

binding result [2]: no binding (tested: all below 3.5 RU)
binding result [3]: no binding (tested: all below 3.5 RU)
binding result [4]: no binding (tested: all below 3.5 RU)
binding result [5]: no binding (tested: all below 3.5 RU)
binding result [6]: no binding (tested: all below 3.5 RU)
binding result [14]: no binding (tested: all below 3.5 RU)
binding result [7]: no binding (tested: all below 3.5 RU)
binding result [8]: no binding (tested: all below 3.5 RU)
binding result [9]: no binding (tested: all below 3.5 RU)
binding result [10]: no binding (tested: all below 3.5 RU)
Affinity increase [11]: > 2 fold
Affinity increase [12]: 6.9 fold
Kd [13]: 35 nM
B20: AS170036 VL1VH1-VHS57H (scFv)
scFv: B1 scFv with I98H, S183H, A234G
